In patent US20240254229A1 (Molecular Partners, published 2024):

How the values were obtained:
[1] = molecular target: T1, human serum albumin (human, UniProt P02768 25-609); experiment: SPR (ProteOn XPR36), target on GLC chip
T1 construct: also called HSA; SA

[2] = molecular target: T2, hCD33 and hCD123 immobilized simultaneously on one switchSENSE chip (ratio 2:1, CD33:CD123) (human, UniProt P20138 18-259; P26951 19-305, limits assumed); experiment: switchSENSE, CD33 and CD123 on one chip; slow phase (avidity); slow phase (avidity)
T2 construct: Not a complex: two separate ligands on one surface; used for avidity values and for off-rates; also called both ligands; both targets attached to the surface of the chip

[3] = molecular target: T2, hCD33 and hCD123 immobilized …; experiment: switchSENSE, hCD33 and hCD123 co-immobilised 2:1; panel headed CD123, column KD2 (avidity, simultaneous binding of CD33 and CD123 per paragraph 696)
Experimental: (§1) The designed ankyrin repeat proteins: DARPin® protein #20, DARPin® protein #21, DARPin® protein #22, DARPin® protein #27, DARPin® protein #40 and DARPin® protein #41 were tested in a concentration of 0.16 and 64 nM (in a buffer PE140 containing 10 mM Na2HPO4/NaH2PO4, 140 mM NaCl, 0.05% Tween20, 50 μM EDTA, 50 μM EGTA) for binding against two ligands hCD33 and hCD123, which both were immobilized simultaneously to DNA nanolevers, on the surface, at a pre-defined ratio (2:1, CD33:CD123) and 10% density (100:50) on an ADP-48-1-0 chip, where 100% density 1000 receptors/μm2 (preincubated R1-B48-CD123 and G1-A48-CD33 (100 nM) diluted in cNL-48 (dark)). Briefly the following steps were performed: [0724] Conjugation. Amine coupling of the two ligands (CD33 and CD123) to the DNA nanolever (A48, B48, respectively) and purification of the conjugates using the proFIRE® solution (Dynamic Biosensors GmbH) at 25° C. [0725] Evaluation of all the combined affinity and avidity of all different proteins to both ligands attached on the surface of an ADP chip using a DRX+ instrument (dynamic BIOSENSORS). [0726] Statistical analysis (repeatability from 2 to 5 times) including regeneration of the chip surface every concentration analyzed and long dissociation times and data were fitted using a bi-exponential global fit.

[4] = molecular target: T3, human CD3 on primary human pan-T cells (human, UniProt P07766 23-207; P09693 23-182; P04234 22-171; P20963 22-164); experiment: Mirrorball cytometry on primary human pan-T cells, 600 µM HSA
T3 construct: whole, on cells; Native complex on T cells isolated from PBMC; also called CD3 on Pan-T cells
T3 sequence (P07766 23-207, chain 1 of 4): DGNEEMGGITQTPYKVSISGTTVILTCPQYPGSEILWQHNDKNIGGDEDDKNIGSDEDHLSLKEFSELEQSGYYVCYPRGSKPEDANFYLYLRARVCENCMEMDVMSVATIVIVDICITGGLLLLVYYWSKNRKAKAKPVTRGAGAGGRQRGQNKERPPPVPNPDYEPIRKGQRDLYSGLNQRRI
T3 sequence (P09693 23-182, chain 2 of 4): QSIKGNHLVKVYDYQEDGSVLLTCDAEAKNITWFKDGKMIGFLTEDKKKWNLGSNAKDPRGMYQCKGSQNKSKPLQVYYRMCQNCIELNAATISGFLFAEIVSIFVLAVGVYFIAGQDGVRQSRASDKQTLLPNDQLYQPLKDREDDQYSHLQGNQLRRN
T3 sequence (P04234 22-171, chain 3 of 4): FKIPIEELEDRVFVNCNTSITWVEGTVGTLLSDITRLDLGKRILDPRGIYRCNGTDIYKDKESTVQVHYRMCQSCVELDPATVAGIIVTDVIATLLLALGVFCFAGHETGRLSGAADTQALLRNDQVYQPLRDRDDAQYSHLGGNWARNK
T3 sequence (P20963 22-164, chain 4 of 4): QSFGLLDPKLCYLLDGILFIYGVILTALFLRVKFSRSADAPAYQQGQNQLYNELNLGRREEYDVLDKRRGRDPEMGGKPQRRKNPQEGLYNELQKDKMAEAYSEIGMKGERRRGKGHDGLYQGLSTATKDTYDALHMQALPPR
Experimental: The determination of T cell binding was performed with primary human T cells using Mirrorball laser scanning imaging cytometry. Therefore, primary T cells were isolated from human peripheral blood mononuclear cells (PBMCs) using a pan-T cell purification kit (Miltenyi Biotec). A titration of DARPin® protein #27, DARPin® protein #28 and DARPin® protein #29 and DARPin® protein #30 were incubated with 50′000 pan-T cells per well in presence of 600 μM human serum albumin (to mimic physiological serum concentration) for 30 minutes at 4° C. Two benchmark T-cell engagers, AMG330 and flotetuzumab were applied as controls, targeting CD33 or CD123. After washing, CD3 binding was detected by 1:100-diluted anti-penta-His Alexa Fluor 488 antibody (Qiagen). After 30 min incubation at 4° C., cells were washed and resuspended in Cytofix fixation buffer (BD Biosciences) and counterstained by 5 μM DRAQ5 (Abcam) for 15 min at RT. Median of mean fluorescence intensities of Alexa Fluor 488 binding on far-red counterstained cells were measured by Mirrorball using Cellista software (SPT Labtech) and data was plotted using GraphPad Prism 8.

[5] = molecular target: T2, hCD33 and hCD123 immobilized …; experiment: switchSENSE; KD,2 against KD,1
Experimental: as §1

[6] = molecular target: T4, hCD33 (recombinant, construct not stated) (human, UniProt P20138 18-259, limits assumed); experiment: switchSENSE, hCD33 and hCD123 co-immobilised 2:1; panel headed CD33, column KD1 (affinity)
T4 construct: also called CD33 (Ligand 1)
T4 sequence (P20138 18-259 limits assumed): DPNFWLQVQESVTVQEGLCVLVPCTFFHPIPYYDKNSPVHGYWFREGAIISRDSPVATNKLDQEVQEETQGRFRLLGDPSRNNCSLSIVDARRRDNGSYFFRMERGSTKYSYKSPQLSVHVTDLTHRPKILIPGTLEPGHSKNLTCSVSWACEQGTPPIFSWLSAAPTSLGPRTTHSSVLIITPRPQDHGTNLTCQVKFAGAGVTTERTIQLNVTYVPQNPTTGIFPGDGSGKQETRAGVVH

T1 sequence (P02768 25-609 limits assumed): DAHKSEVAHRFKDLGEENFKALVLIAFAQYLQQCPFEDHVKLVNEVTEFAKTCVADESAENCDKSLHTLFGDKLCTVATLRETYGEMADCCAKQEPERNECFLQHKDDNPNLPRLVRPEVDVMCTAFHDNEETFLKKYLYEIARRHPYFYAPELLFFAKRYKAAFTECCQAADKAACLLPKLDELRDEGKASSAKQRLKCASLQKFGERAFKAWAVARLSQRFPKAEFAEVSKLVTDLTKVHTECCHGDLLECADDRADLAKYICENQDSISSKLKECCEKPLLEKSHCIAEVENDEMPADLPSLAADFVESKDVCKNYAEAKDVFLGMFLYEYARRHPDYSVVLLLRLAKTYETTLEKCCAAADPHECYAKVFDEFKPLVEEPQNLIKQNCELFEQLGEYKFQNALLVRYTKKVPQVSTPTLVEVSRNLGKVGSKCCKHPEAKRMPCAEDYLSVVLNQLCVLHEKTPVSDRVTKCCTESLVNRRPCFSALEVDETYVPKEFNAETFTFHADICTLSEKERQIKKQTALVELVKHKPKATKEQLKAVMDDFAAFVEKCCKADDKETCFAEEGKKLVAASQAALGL

koff [2]: ~0.001 s⁻¹
Kd [3]: 0.3 nM
EC50 [4]: 6.52 nM
fold lower KD,2 (avidity) than the measured affinity [5]: ≥ 14 fold
Kd [6]: 20 nM
B1: DARPin® protein #27 (designed binder)
chain: DLGKKLLEAALEGQLDEVRELLKAGADVNAKDQEGYTPLHLAAALGHLEIVEVLLKAGADVNAKDSIGRTPLHLAAYKGHLEIVEVLLKAGADVNAQDLLGETPADLAAEQGHQDIAEVLQKAAGSPTPTPTTPTPTPTTPTPTPTGSDLGVKLLLAASRGQLDEVRILLKAGADVNAKDIDEGYTPLHIAAYYGHLEIVEVLLKAGADVNAKDRYGKTPLHLAAISGHLEIVEVLLKAGADVNAQDDKGDTPADLAADYGHQDIAEVLQKAAGSPTPTPTTPTPTPTTPTPTPTGSDLGQKLLEAAWAGQDDEVRELLKAGADVNAKNSRGWTPLHTAAQTGHLEIFEVLLKAGADVNAKDDKGVTPLHLAAALGHLEIVEVLLKAGADVNAQDSWGTTPADLAAKYGHEDIAEVLQKAA
notes: CD123-CD33-CD3; also called αCD123-aCD33-αCD3_1; not shown: N-terminal His-tag
binding result [1]: no binding (tested: 100 nM (highest concentration))
